Results as given in patent US20230272055A1 (Incyte, published 2023).

T1: human Type 1 mutCALR on Ba/F3 cells expressing MPL and Type 1 mutCALR (human)
T1 chain: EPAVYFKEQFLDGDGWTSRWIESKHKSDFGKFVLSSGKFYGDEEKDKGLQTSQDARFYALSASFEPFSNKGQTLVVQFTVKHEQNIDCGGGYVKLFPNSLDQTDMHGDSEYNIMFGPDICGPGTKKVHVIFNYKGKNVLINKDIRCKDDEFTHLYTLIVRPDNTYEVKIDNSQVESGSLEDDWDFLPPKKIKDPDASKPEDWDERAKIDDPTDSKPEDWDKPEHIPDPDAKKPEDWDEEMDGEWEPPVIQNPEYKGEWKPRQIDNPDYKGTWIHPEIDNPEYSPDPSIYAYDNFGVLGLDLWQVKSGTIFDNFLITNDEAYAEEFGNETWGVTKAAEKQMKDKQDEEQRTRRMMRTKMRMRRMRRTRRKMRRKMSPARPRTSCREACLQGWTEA

T2: human mutCALR on BaF3 cells stably expressing human MPL and human mutCALR (MPL-mutCALR cells) (human)
T2 construct: also called mutant calreticulin
T2 chain: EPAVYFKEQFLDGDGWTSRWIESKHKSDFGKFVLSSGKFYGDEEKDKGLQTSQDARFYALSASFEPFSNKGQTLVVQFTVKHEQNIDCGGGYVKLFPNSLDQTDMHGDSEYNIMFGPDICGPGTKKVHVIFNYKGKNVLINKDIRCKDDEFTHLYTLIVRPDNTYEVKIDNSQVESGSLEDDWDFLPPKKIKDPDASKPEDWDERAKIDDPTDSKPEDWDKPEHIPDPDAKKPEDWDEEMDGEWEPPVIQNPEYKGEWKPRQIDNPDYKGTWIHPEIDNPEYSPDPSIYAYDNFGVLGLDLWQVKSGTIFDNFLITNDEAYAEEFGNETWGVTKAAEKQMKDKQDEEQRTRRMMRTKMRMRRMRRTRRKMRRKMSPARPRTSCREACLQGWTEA


Key:
[1] = target: T1, human Type 1 mutCALR on Ba/F3 cells …; test: cell-based or functional assay
[2] = target: T2, human mutCALR on BaF3 cells stably …; test: flow cytometry, BaF3 MPL-mutCALR cells
Method: On the day of the assay, cells were washed and resuspended in assay buffer. Approximately 200,000 cells/well were added to 96-well plates and stained with the indicated concentration of antibodies for 30 minutes on ice. Cells were then washed and stained with goat anti-human secondary conjugated to R-phycoerythrin (R-PE) (Jackson Immuno Research Laboratories) for 30 minutes on ice. The cells were then washed and analyzed by flow cytometry.

[3] = target: T3, Recombinant MBP-mutCALR Type 1 fusion protein (human); test: SPR, IgG captured, 1:1 fit, Exp. 1
T3 construct: custom made at Cepter; also called recombinant mutCALR protein

[4] = target: T3, Recombinant MBP-mutCALR Type 1 fusion …; test: SPR, IgG captured, 1:1 fit, Exp. 2
Method in brief: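 Antibodies captured via amine-coupled anti-human IgG (Fc) on a CM4 chip; recombinant MBP-mutCALR Type 1 fusion protein as analyte. Run at 25 °C in Tris-buffered saline pH 7.2, 0.005% P20, 1 mM CaCl₂. Multiple-cycle kinetics fitted to a 1:1 binding model.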

| Binder | IC50, inhibition of pSTAT5 [1] | EC50 [2] | MPL-mutCALR AUC [2] | other results |
| --- | --- | --- | --- | --- |
| anti-mutCALR antibody clone 44 (antibody, human IgG1, lambda, V domains shown) VH: EVQLVQSGAEVKKPGSSVKVSCKASGGTFSSYAISWVRQAPGQGLEWMGGIIPIFGTANYAQKFQGRVTITADESTSTAYMELSSLRSEDTAVYYCASSPLRGSGWYWHYYYGMDVWGQGTTVTVSS VL: SYVLTQPPSVSAAPGKTARISCGGNNIRSKSVHWYQQKAGQAPVLVIYQDSKRPSGIPERFSGSNSGNTATLTISGTQAMDEADYYCQAWDSNTVVFGGGTKLTVLG | 7 µg/mL |  |  |  |
| anti-mutCALR antibody clone 47 (antibody, human IgG1, lambda, V domains shown) VH: EVQLVQSGAEVKKPGSSVKVSCKASGGTFSSYAISWVRQAPGQGLEWMGGIIPIFGTANYAQKFQGRVTITADESTSTAYMELSSLRSEDTAVYYCASSPLRGSGWYWHYYYGMDVWGQGTTVTVSS VL: SYELTQPPSVSVAPGKTARITCGGNKIGTKSVHWYQQKPGQAPVLVIYRDSNRPSGIPERFSGSNSGNTATLTISRAQAGDEADYYCQVWDSSTVVFGGGTKLTVLG | 10 µg/mL |  |  |  |
| anti-mutCALR antibody clone 46 (antibody, human IgG1, lambda, V domains shown) VH: QVQLVQSGAEVKKPGSSVKVSCKASGGTFSSYAISWVRQAPGQGLEWMGGIIPIFGTANYAQKFQGRVTITADESTSTAYMELSSLRSEDTAVYYCASSPLRGSGWYWHYYYGMDVWGQGTTVTVSS VL: SYELTQPPSVSVAPGKTARITCGGNNIRSKSVHWYQQKPGQAPVLVVYQDSKRPSGIPERFSGSNSGNTATLTISGTQAMDEADYYCQVWDSSTAVFGGGTKLTVLG | 3.9 µg/mL |  |  |  |
| anti-mutCALR antibody clone 1 (antibody, human IgG1, lambda, V domains shown, human IgG1) VH: EVQLVQSGAEVKKPGASVKVSCKVSGYTLTELSMQWVRQAPGKGLEWMGGFDPDDGETMYAEKFQGRLTVTEDTSTDTVYMELRSLTSEDTALYFCATSPGYDFFDYWGQGTLVTVSS VL: SYVLTQPPSVSVAPGKTARITCGGNYIGSKSVHWYQQKPGQAPVLVVYDDGDRPSGIPARFSGSNSGNTATLTISRVEAGDEADYYCQVWDSISDHVVFGGGTKLTVLG | 0.47 µg/mL | 0.01 µg/mL | 52800 |  |
| anti-mutCALR antibody clone 2 (antibody, human IgG1, lambda, V domains shown, human IgG1) VH: EVQLVQSGAEVKKPGASVKVSCKVSGYTLTELSMQWVRQAPGKGLEWMGGFDPDDGETMYAEKFQGRLTVTEDTSTDTVYMELRSLTSEDTALYFCATSPGYDFFDYWGQGTLVTVSS VL: SYELTQPPSVSVAPGKTARITCGGDNIGSKSVHWYQQKPGQAPVLVVYDDSDRPSGIPERFSGSNSGNTATLTISRVEAGDEADYYCQVWDSSIDHLIFGGGTKVTVLG | 0.12 µg/mL | 0.01 µg/mL | 60400 |  |
| anti-mutCALR antibody clone 4 (antibody, human IgG1, lambda, V domains shown, human IgG1) VH: EVQLVQSGAEVKKPGASVKVSCKVSGYTLTELSMQWVRQAPGKGLEWMGGFDPDDGETMYAEKFQGRLTVTEDTSTDTVYMELRSLTSEDTALYFCATSPGYDFFDYWGQGTLVTVSS VL: SYVLTQPPSVSVAPGQTARITCGGNNIGSKSVHWYQQKPGQAPVLVVYDDSDRPSGIPERFSGSNSGNTATLTINRVEAGDEADYYCQVWDSSNDLLIFGGGTKLTVLG | 0.04 µg/mL |  | 74000 |  |
| anti-mutCALR antibody clone 10 (antibody, human IgG1, lambda, V domains shown, human IgG1) VH: EVQLVQSGAEVKKPGASVKVSCKVSGYTLTELSMQWVRQAPGKGLEWMGGFDPDDGETMYAEKFQGRLTVTEDTSTDTVYMELRSLTSEDTALYFCATSPGYDFFDYWGQGTLVTVSS VL: SYELTQPPSVSVAPGQTARIPCGGNNIGSEGVHWYQQKPGQAPVLVVYDDSDRPSGIPERFSGSNSGNTATLTISRVEAGDEADYYCQVWDSSNDLLIFGGGTKLTVLG | 0.055 µg/mL |  | 72100 |  |
| anti-mutCALR antibody clone 8 (antibody, human IgG1, lambda, V domains shown, human IgG1) VH: QVQLVQSGAEVKKPGSSVKVSCKVSGYTLTELSMQWVRQAPGKGLEWMGGFDPDDGETMYAEKFQGRLTVTEDTSTDTVYMELRSLTSEDTALYFCATSPGYDFFDYWGQGTLVTVSS VL: SYELTQPPSVSVAPGQTARITCGGNNIGSKSVHWYQQKPGQAPVLVVYDDSDRPSGIPERFSGSNSGRTATLTISRVEAGDEADYHCQVWDSSSDHLVFGGGTKLTVLG | 0.043 µg/mL | 4.12 µg/mL | 67400 |  |
| anti-mutCALR antibody clone 9 (antibody, human IgG1, lambda, V domains shown, human IgG1) VH: EVQLVQSGAEVKKPGASVKVSCKVSGYTLTELSMQWVRQAPGKGLEWMGGFDPDDGETMYAEKFQGRLTVTEDTSTDTVYMELRSLTSEDTALYFCATSPGYDFFDYWGQGTLVTVSS VL: SYVLTQPPSVSVAPGQTARIPCGGNNIGSKSVHWYQQKPGQAPVLVVYDDRDRPSGIPERFSGSNSGNTATLTINRVEAGDEADYYCQVWDSSNDLLIFGGGTKLTVLG | 0.056 µg/mL |  | 75300 |  |
| anti-mutCALR antibody clone 3 (antibody, human IgG1, lambda, V domains shown, human IgG1) VH: EVQLVQSGAEVKKPGASVKVSCKVSGYTLTELSMQWVRQAPGKGLEWMGGFDPDDGETMYAERFQGRLTVTEDTSTDTVYMELRSLTSEDTALYFCATSPGYDFFDYWGQGTLVTVSS VL: SYVLTQPPSVSVAPGQTARITCGGNNIGSKSVHWYQQKPGQAPVLVVYDDSDRPSGIPERFSGSNSGNTATLTINRVEAGDEADYYCQVWDSSNDLLIFGGGTKLTVLG | 0.021 µg/mL |  | 102000 |  |
| anti-mutCALR antibody clone 5 (antibody, human IgG1, lambda, V domains shown, human IgG1) VH: EVQLVQSGAEVKKPGASVKVSCKVSGYTLTELSMQWVRQAPGKGLEWMGGFDPDDGETMYAEKFQGRLTVTEDTSTDTVYMELRSLTSEDTALYFCATSPGYDFFDYWGQGTLVTVSS VL: SYVLTQPPSVSVAPGQTASITCVGTNFGSKNVHWYQQRPGQAPVLVVYDDSDRPSGIPERFSGSNSGNTATLTISRVEAGDEADYYCQVWDSSSDHLIFGGGTKLTVLG | 0.03 µg/mL | 0.09 µg/mL | 57100 |  |
| anti-mutCALR antibody clone 7 (antibody, human IgG1, lambda, V domains shown, human IgG1) VH: EVQLVQSGAEVKKPGASVKVSCKVSGYTLTELSMQWVRQAPGKGLEWMGGFDPDDGETMYAEKFQGRLTVTEDTSTDTVYMELRSLTSEDTALYFCATSPGYDFFDYWGQGTLVTVSS VL: SYVLTQPPSVSVAPGQTASITCVGTNFGSKNVHWYQQRPGQAPVLVVYDDSDRPSGIPERFSGSNSGNTATLTINRVEAGDEADYYCQVWDSSNDLLIFGGGTKLTVLG | 0.049 µg/mL | 0.19 µg/mL | 66800 |  |
| anti-mutCALR antibody clone 53 (antibody, human IgG1, lambda, V domains shown, human IgG1) VH: QVQLVQSGAEVKKPGASVKVSCKVSGYTLTELSMHWVRQAPGKGLEWMGGFDPEDGETIYAQKFQGRVTMTEDTSTDTAYMELSSLRSEDTAVYYCATDIQGLAEFDYWGQGTLVTVSS VL: QSALTQPRSVSGSPGQSVTISCTGTNTDVGAYIDVSWYQQHPGKAPKLIIYDVSKWPSGVPDRFSGSKSGNTASLTISGLQAEDEADYYCCSYAGNHSFSFGGGTKVTVLG |  |  |  | Kd [3]: 10.2 nM; koff [3]: 0.00235 s⁻¹; kon [3]: 229000 M⁻¹ s⁻¹; Kd [4]: 17 nM; koff [4]: 0.108 s⁻¹; kon [4]: 6.36e+06 M⁻¹ s⁻¹ |
| anti-mutCALR antibody clone 6 (antibody, human IgG1, lambda, human IgG1) heavy: not shown light: QSALTQPASVSGSPGQSITISCTGTSSDVGGYNYVSWYQQHPGKAPKLMIYEVSNRPSGVSNRFSGSNSGNTATLTINRVEAGDEADYYCQVWDSSNDLLIFGGGTKLTVLGQPKAAPSVTLFPPSSEELQANKATLVCLISDFYPGAVTVAWKADSSPVKAGVETTTPSKQSNNKYAASSYLSLTPEQWKSHRSYSCQVTHEGSTVEKTVAPTECS |  |  |  | Kd [3]: 2.57 nM; koff [3]: 0.00153 s⁻¹; kon [3]: 597000 M⁻¹ s⁻¹; Kd [4]: 0.538 nM; koff [4]: 0.00123 s⁻¹; kon [4]: 2.29e+06 M⁻¹ s⁻¹ |
